Source: US20220064329A1 (Novo Nordisk, published 2022)

T1: recombinant human activated Factor VII (FVIIa) (human, UniProt P08709 61-212; P08709 213-466, Gla domain: ten glutamate residues may be gamma-carboxylated)
T1 construct: two-chain form after cleavage between Arg152 and Ile153; light chain (Gla, EGF domains) and heavy chain (protease domain) tethered by a disulfide bond; also called rFVIIa; human FVIIa
T1 sequence 1: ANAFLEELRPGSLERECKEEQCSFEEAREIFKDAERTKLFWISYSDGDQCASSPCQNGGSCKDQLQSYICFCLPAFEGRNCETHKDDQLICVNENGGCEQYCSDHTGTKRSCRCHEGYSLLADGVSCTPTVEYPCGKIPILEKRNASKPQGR
T1 sequence 2: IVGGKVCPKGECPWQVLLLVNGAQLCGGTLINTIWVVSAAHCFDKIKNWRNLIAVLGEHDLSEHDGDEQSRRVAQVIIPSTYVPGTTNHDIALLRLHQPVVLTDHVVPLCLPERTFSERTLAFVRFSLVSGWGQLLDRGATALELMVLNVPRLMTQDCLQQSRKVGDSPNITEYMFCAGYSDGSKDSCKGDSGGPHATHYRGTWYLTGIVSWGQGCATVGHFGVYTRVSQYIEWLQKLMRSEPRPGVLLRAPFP


Target: T1, recombinant human activated Factor VII …
Experiment: Bio-Layer Interferometry (Fortebio), antibody on anti-human tips, FVIIa 25-200 nM
Experimental: All steps were performed in running buffer (20 mM HEPES buffer (pH 7.4), 150 mM NaCl, 5 mM CaCl2, 0.03% Tween 20, 1 mg/ml IgG-free BSA) at […] Antibodies were captured on anti-human tips (AHC, Fortebio) for 3 min at a concentration of 10 ug/ml. This was followed by a 3 min incubation to establish a baseline. Following this, association was monitored for 3 min using four different concentrations of VIIa (25 nm, 50 nM, 100 nM, and 200 nM), followed by a 3 mi dissociation. Sensorgrams were analysed using Fortebio data analysis software.

Binder | Kd
mAb0126 (antibody, human IgG4 S228P, kappa, V domains shown, humanized 11F2 variant, first round) VH: DVQLQESGPGLVEPSQTLSLTCTVSGYSITSDSAWSWIRQFPGKKLEWMGYIQYSGSTNYNPSLKSRVTISRDTSKNQFSLKLSSVTAEDTAVYYCARSVNYYGNSFAVGYWGQGTSVTVSS VL: EIVLTQSPATLSLSPGERATLSCRASQGVSDYLHWYQQKPGEAPRLLIKYTSQPATGIPARFSGSGSGTDFTLTISSLEPEDVGVYYCQNGHSFPLTFGAGTKLELKR | 2.5 nM
mAb0123 (antibody, human IgG4 S228P, kappa, V domains shown, humanized 11F2 variant, first round) VH: DVQLQESGPGLVEPSQTLSLTCTVSGYSITSDSAWSWIRQFPGKKLEWMGYIQYSGSTNYNPSLKSRVTISRDTSKNQFSLKLSSVTAEDTAVYYCARSVNYYGNSFAVGYWGQGTSVTVSS VL: EIVLTQSPATLSLSPGERATLSCRASQGISSYLHWYQQKPGEAPRLLIKYTSQPATGIPARFSGSGSGTDFTLTISSLEPEDVGVYYCQNGHSFPLTFGAGTKLELKR | 5.8 nM
mAb0121 (antibody, human IgG4 S228P, kappa, V domains shown, humanized 11F2 variant, first round) VH: DVQLQESGPGLVEPSQTLSLTCTVSGYSITSDSAWSWIRQFPGKKLEWMGYIQYSGSTNYNPSLKSRVTISRDTSKNQFSLKLSSVTAEDTAVYYCARSVNYYGNSFAVGPWGQGTSVTVSS VL: EIVLTQSPATLSLSPGERATLSCRASQGISDYLHWYQQKPGEAPRLLIKYTSQPATGIPARFSGSGSGTDFTLTISSLEPEDVGVYYCQNGHSFPLTFGAGTKLELKR | 2 nM
mAb0124 (antibody, human IgG4 S228P, kappa, V domains shown, humanized 11F2 variant, first round) VH: DVQLQESGPGLVEPSQTLSLTCTVSGYSITSDSAWSWIRQFPGKKLEWMGYIQYSGSTNYNPSLKSRVTISRDTSKNQFSLKLSSVTAEDTAVYYCARSVNYYGNSFAVGYWGQGTSVTVSS VL: EIVLTQSPATLSLSPGERATLSCRASQGISDYLHWYQQKPGQAPRLLIKYTSQPATGIPARFSGSGSGTDFTLTISSLEPEDVGVYYCQNGHSFPLTFGAGTKLELKR | 1.8 nM

These reach a lower Kd. Values come first.

Kd | Binder
1.7 nM | mAb0125 (antibody, human IgG4 S228P, kappa, V domains shown, humanized 11F2 variant, first round) VH: DVQLQESGPGLVEPSQTLSLTCTVSGYSITSDSAWSWIRQFPGKKLEWMGYIQYSGSTNYNPSLKSRVTISRDTSKNQFSLKLSSVTAEDTAVYYCARSVNYYGNSFAVGYWGQGTSVTVSS VL: EIVLTQSPATLSLSPGERATLSCRASQGISDYLHWYQQKPGEAPRLLIKYTSQPATGIPARFSGSGSGTDFTLTISSLEPEDVAVYYCQNGHSFPLTFGAGTKLELKR
1.7 nM | mAb0122 (antibody, human IgG4 S228P, kappa, humanized 11F2 variant, first round) heavy: not shown light: EIVLTQSPATLSLSPGERATLSCRASQGISDYLHWYQQKPGEAPRLLIKYTSQPATGIPARFSGSGSGTDFTLTISSLEPEDVGVYYCQNGHSFPLTFGQGTKLELKRTVAAPSVFIFPPSDEQLKSGTASVVCLLNNFYPREAKVQWKVDNALQSGNSQESVTEQDSKDSTYSLSSTLTLSKADYEKHKVYACEVTHQGLSSPVTKSFNRGEC
1.7 nM | mAb0120 (antibody, human IgG4 S228P, kappa, V domains shown, humanized 11F2 variant, first round) VH: DVQLQESGPGLVEPSQTLSLTCTVSGYSISSDSAWSWIRQFPGKKLEWMGYIQYSGSTNYNPSLKSRVTISRDTSKNQFSLKLSSVTAEDTAVYYCARSVNYYGNSFAVGYWGQGTSVTVSS VL: EIVLTQSPATLSLSPGERATLSCRASQGISDYLHWYQQKPGEAPRLLIKYTSQPATGIPARFSGSGSGTDFTLTISSLEPEDVGVYYCQNGHSFPLTFGAGTKLELKR
1.7 nM | mAb0128 (antibody, human IgG4 S228P, kappa, V domains shown, humanized 11F2 variant, first round) VH: DVQLQESGPGLVEPSQTLSLTCTVSGYSITSDSAWSWIRQFPGKKLEWMGYIQYSGSTNYNPSLKSRVTISRDTSKNQFSLKLSSVTAEDTAVYYCARSVNYYGNSFAVGYWGQGTSVTVSS VL: EIVLTQSPATLSLSAGERATLSCRASQGISDYLHWYQQKSGEAPRLLIKYTSQPATGIPARFSGSGSGTDFTLTISSLEPEDVGVYYCQNGHSFPLTFGAGTKLELKR
1 nM | mAb0119 (antibody, human IgG4 S228P, kappa, humanized 11F2 variant, first round) heavy: not shown light: EIVLTQSPATLSLSPGERATLSCRASQGISDYLHWYQQKPGEAPRLLIKYTSQPATGIPARFSGSGSGTDFTLTISSLEPEDVGVYYCQNGHSFPLTFGAGTKLELKRTVAAPSVFIFPPSDEQLKSGTASVVCLLNNFYPREAKVQWKVDNALQSGNSQESVTEQDSKDSTYSLSSTLTLSKADYEKHKVYACEVTHQGLSSPVTKSFNRGEC
